The source of these data is paper PMC8546573.

The target in test [1] is biotinylated soluble human PDGFRα (UniProt P16234). The test is described as follows: cell-based binding (staining of transfected 293E cells with soluble PDGFRα and 13H11 scFv). To be noted: read off a plot.
Test [2] has as its target HCMV gHgLgO trimer with full-length gH on HEK293-6E cells, gO K359A (human cytomegalovirus, strain AD169 | human cytomegalovirus, strain TR) (UniProt P12824). The test is described as follows: flow cytometry on cells; HEK293-6E cells cotransfected with full-length gH, gL and gO (wt or mutant) stained with 4 μg/ml biotinylated PDGFRα in PBS with 0.5% BSA, room temperature, half an hour, then Alexa Fluor 647-streptavidin; PDGFRα staining set against staining by the gH antibody 13H11 and compared with wt. (In general: In flow cytometry, cells or beads pass a laser one at a time.)

The target of test [3] is HCMV gHgLgO trimer with full-length gH on HEK293-6E cells, gO R236N/P238S (human cytomegalovirus, strain AD169 | human cytomegalovirus, strain TR) (UniProt P12824). The description is as above.
The target in test [4] is HCMV gHgLgO trimer with full-length gH on HEK293-6E cells, gO R236A (human cytomegalovirus, strain AD169 | human cytomegalovirus, strain TR) (UniProt P12824). The test is described as above.
Test [5] has as its target HCMV gHgLgO trimer with full-length gH on HEK293-6E cells, gO R214A (human cytomegalovirus, strain AD169 | human cytomegalovirus, strain TR) (UniProt P12824). Described as above.
Test [6] has as its target HCMV gHgLgO trimer with full-length gH on HEK293-6E cells, gO Y240A (human cytomegalovirus, strain AD169 | human cytomegalovirus, strain TR) (UniProt P12824). Described as above.

As to “HCMV gHgLgO trimer with full-length gH on the surface of HEK293-6E cells, gO wild type (from UniProt P12824;P16832) gO:E346A”, the other: ratio of PDGFRα/13H11 binding in test [1] worked out at 1.2. “HCMV gHgLgO trimer with full-length gH on the surface of HEK293-6E cells, gO wild type (from UniProt P12824;P16832) gO:F113A”: the other: ratio of PDGFRα/13H11 binding in test [1] stood at 0.75. On to “HCMV gHgLgO trimer with full-length gH on the surface of HEK293-6E cells, gO wild type (from UniProt P12824;P16832) gO:F113N”, for which the other: ratio of PDGFRα/13H11 binding in test [1] worked out at 0.73. Regarding “HCMV gHgLgO trimer with full-length gH on the surface of HEK293-6E cells, gO wild type (from UniProt P12824;P16832) gO:F138A”, the other: ratio of PDGFRα/13H11 binding in test [1] came to 0.82. With “HCMV gHgLgO trimer with full-length gH on the surface of HEK293-6E cells, gO wild type (from UniProt P12824;P16832) gO:K123A”, the other: ratio of PDGFRα/13H11 binding in test [1] was determined as 0.87. “HCMV gHgLgO trimer with full-length gH on the surface of HEK293-6E cells, gO wild type (from UniProt P12824;P16832) gO:K194A”: the other: ratio of PDGFRα/13H11 binding in test [1] amounted to 1.1. The same measure, in the same setting: to “HCMV gHgLgO trimer with full-length gH on the surface of HEK293-6E cells, gO wild type (from UniProt P12824;P16832) gO:P343A” belongs 1.2; to “HCMV gHgLgO trimer with full-length gH on the surface of HEK293-6E cells, gO wild type (from UniProt P12824;P16832) gO:Q117A”, 0.81. The same measure, in the same setting: to “HCMV gHgLgO trimer with full-length gH on the surface of HEK293-6E cells, gO wild type (from UniProt P12824;P16832) gO:R119A” belongs 0.9. On the same count and under the same terms, to “HCMV gHgLgO trimer with full-length gH on the surface of HEK293-6E cells, gO wild type (from UniProt P12824;P16832) gO:R232A” belongs 0.96; to “HCMV gHgLgO trimer with full-length gH on the surface of HEK293-6E cells, gO wild type (from UniProt P12824;P16832) gO:R239A”, 1.1; to “HCMV gHgLgO trimer with full-length gH on the surface of HEK293-6E cells, gO wild type (from UniProt P12824;P16832) gO:R338A”, 0.95.

For “HCMV gHgLgO trimer with full-length gH on the surface of HEK293-6E cells, gO wild type (from UniProt P12824;P16832) gO:R349A”, the other: ratio of PDGFRα/13H11 binding in test [1] was determined as 1. Still for that read-out and setting: to “HCMV gHgLgO trimer with full-length gH on the surface of HEK293-6E cells, gO wild type (from UniProt P12824;P16832) gO:T116A” belongs 0.62. On the same count and under the same terms, to “HCMV gHgLgO trimer with full-length gH on the surface of HEK293-6E cells, gO wild type (from UniProt P12824;P16832) gO:Y371A” belongs 1.1.

For the substance “biotinylated soluble human PDGFRα (from UniProt P16234 24-528) (receptor)”, the percent of wild-type binding was < 33 % of wt in test [2]; 50 % of wt in test [3]; < 33 % of wt in test [4]; < 33 % of wt in test [5]; < 33 % of wt in test [6].
